Source: the RNAGym collection of RNA variant scans (doi:10.7554/elife.80360)

B1: Hairpin Ribozyme (parent)
chain: GUCCUCUUUCACGUGCGCGUGAAAGAGAGAAGUGAACCAGAGAAACACACGUUGUGGUAUAUUACCUGGUA

Variants of: B1
Test: self-cleavage, relative activity (ratio to wild type); higher = more cleavage; co-transcriptional

Variant	self-cleavage
A26G A47G	0.161
A23G A45G	0.175
A47G U70G	0.115
U7A G51C	0.972
A44C C50U	0.15
G21U A24G	0.805
A36C A71G	0.303
G34C C66G	0.627
U14A A28U	0.574
A35C A61G	0.234
U7G C37U	0.531
U63C A71C	0.578
U7G A28C	0.329
G15U G69U	0.176
A45C C66U	0
U5C U60C	0.549
U5C U60G	0.236
G13U G34C	0.998
G17C A59U	0.122
A28U C38U	0.343
G19C G51A	0.903

Variant	self-cleavage
A39U U63A	0.114
U2G G69U	0.116
A45C G68A	0.229
C38U G69U	0.283
U53C A61G	0.254
A39G U62A	0.12
G21A G57U	0.232
G42U G69U	0.136
A36U A41G	0.476
A28C A61C	0.122
G1C U14A	0.046
C12G U20A	0.795
A49C G51C	0.1
C50U G57A	0.112
U52A U60C	1.42
A22U A39G	0.277
A28G G32A	0.236
C4G C38U	0.129
A11C U14C	0.68
A35C A47C	0.564
C18A G19U	0.923

Variant	self-cleavage
C18G U62A	0.2
A11G G19A	0.88
A11U A24U	0.638
G32U C65U	0.115
G13U G42U	0.289
U58A A59U	0.183
A43C A45U	0.203
C12G C37G	0.294
U7C C16A	0.913
G51C U62A	0.141
A26U A44U	0.141
U7G U8G	0.768
U2A U9A	0.201
A44G A59U	0.155
A23G U58G	0.657
A28C A31C	0
C6U C12A	0.656
U52G G56A	0.19
C10G G17C	0.533
C10A A36C	0.528
A47G A49C	0.307

Variant	self-cleavage
G29C G51U	0.141
A45C U63C	0.0707
C3G G25C	0.0885
U55G A61U	0.0838
U9G C10U	0.743
U20A G69A	0.337
G56A U62C	0.141
C10G U58C	0.681
A45C G51A	0.0999
G29U C46G	0.182
C46U U52G	0.197
A22U G29U	0.071
U5G C18A	0.37
C10A A35G	0.63
G42C C46G	0.103
U63G U70A	0.0931
G25U U62C	0.123
A11C U20A	0.774
C16G G34A	0.883
G25A G68U	0.152
C3A C37A	0.217
